Data set [1] relates to HeLa Kyoto. Put plainly: solubility in G1/S (NP-40 vs SDS abundance) (log2 ratio); higher = more soluble. As to conditions: cell cycle stage: G1/S.
Data set [2] concerns HeLa Kyoto. The experiment in a line: melting temperature (median over replicates), in situ; higher = more thermally stable.
For data set [3], the system named is HeLa Kyoto. Put plainly: thermal stability score vs G1/S (z-score of summed log2 fold changes over temperatures); higher = more thermally stable than in G1/S.
In data set [4] the test system is HeLa Kyoto. Put plainly: solubility change mitosis vs G1/S (difference of NP-40 vs SDS log2 ratios) (log2 ratio difference); higher = more soluble in mitosis.
[5] abbreviates: cell cycle stage: early G1 (4.5 h after nocodazole release).
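Wherever melting temperature (median over replicates), in situ is given: HeLa Kyoto cells synchronized by double thymidine or nocodazole block, proteins quantified by TMT10plex mass spectrometry, three independent biological replicates.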
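Wherever solubility change mitosis vs G1/S (difference of NP-40 vs SDS log2 ratios) is given: synchronized HeLa Kyoto cells (double thymidine block for G1/S, nocodazole release for mitosis), protein amounts in NP-40 versus SDS lysates quantified by mass spectrometry, three biological replicates.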
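Wherever solubility in G1/S (NP-40 vs SDS abundance) is given: HeLa Kyoto cells arrested at G1/S by double thymidine block, proteins quantified by TMT10plex mass spectrometry in mild NP-40 versus SDS extracts, three biological replicates.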
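Wherever thermal stability score vs G1/S (z-score of summed log2 fold changes over temperatures) is given: synchronized HeLa Kyoto cells, proteins quantified by TMT10plex mass spectrometry, three biological replicates, mitosis taken 0.5 h after nocodazole release, G1/S directly after double thymidine block.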

Sequence of TMEM55B (chain, as listed by the source): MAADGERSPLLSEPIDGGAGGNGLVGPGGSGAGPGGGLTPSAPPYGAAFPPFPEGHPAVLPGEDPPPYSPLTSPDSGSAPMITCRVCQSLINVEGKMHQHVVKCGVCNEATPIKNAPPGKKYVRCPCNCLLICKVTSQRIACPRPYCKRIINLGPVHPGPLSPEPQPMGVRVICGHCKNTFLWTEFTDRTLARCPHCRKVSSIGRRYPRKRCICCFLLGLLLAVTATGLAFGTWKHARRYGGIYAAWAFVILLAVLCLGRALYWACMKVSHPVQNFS
Sequence of SLC27A4 (chain, as listed by the source): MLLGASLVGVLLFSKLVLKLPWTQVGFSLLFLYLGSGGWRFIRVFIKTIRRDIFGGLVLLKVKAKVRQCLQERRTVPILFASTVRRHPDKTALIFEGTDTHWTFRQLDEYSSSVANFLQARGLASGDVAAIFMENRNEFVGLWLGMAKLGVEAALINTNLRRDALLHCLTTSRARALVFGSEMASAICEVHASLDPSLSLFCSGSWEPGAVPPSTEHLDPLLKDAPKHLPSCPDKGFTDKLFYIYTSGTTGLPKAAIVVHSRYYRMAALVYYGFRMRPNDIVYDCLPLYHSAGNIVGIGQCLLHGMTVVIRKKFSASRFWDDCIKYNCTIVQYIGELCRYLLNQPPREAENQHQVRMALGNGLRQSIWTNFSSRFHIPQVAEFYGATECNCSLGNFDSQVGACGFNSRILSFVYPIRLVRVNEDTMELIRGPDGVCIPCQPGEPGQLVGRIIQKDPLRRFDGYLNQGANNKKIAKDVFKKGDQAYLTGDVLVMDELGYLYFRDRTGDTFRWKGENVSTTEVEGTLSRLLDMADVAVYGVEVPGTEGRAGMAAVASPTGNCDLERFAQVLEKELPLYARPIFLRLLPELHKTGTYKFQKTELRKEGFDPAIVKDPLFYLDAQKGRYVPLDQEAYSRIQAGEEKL

Turning to “MPVDLSKWSGPLSLQEVDEQPQHPLHVTYAGAAVDELGKVLTPTQVKNRPTSISWDGLDSGKLYTLVLTDPDAPSRKDPKYREWHHFLVVNMKGNDISSGTVLSDYVGSGPPKGTGLHRYVWLVYEQDRPLKCDEPILSNRSGDHRGKFKVASFRKKYELRAPVAGTCYQAEWDDYVPKLYEQLSGK [PEBP1]”, the “solubility in G1/S (log2)” value in the data set with HeLa Kyoto [1] stood at 0.607. Moreover, the melting temperature in the data set on HeLa Kyoto [2] (cell cycle stage: G1/S) stood at 56.9 °C; in the data set on HeLa Kyoto [2] (cell cycle stage: mitosis), 57.3 °C. The thermal stability score in the data set on HeLa Kyoto [3] (setting [5]) is -0.593; in the data set on HeLa Kyoto [3] (cell cycle stage: mitosis) it was -3.2. Moreover, the “solubility change mitosis (log2)” value in the data set with HeLa Kyoto [4] was 0.21.

Take “MSVQVVSAAAAAKVPEVELKDLSPSEAESQLGLSTAAVGAMAPPAGGGDPEAPAPAAERPPVPGPGSGPAAALSPAAGKVPQASAMKRSDPHHQHQRHRDGGEALVSPDGTVTEAPRTVKKQIQFADQKQEFNKRPTKIGRRSLSRSISQSSTDSYSSAASYTDSSDDETSPRDKQQKNSKGSSDFCVKNIKQAEFGRREIEIAEQEMPALMALRKRAQGEKPLAGAKIVGCTHITAQTAVLMETLGALGAQCRWAACNIYSTLNEVAAALAESGFPVFAWKGESEDDFWWCIDRCVNVEGWQPNMILDDGGDLTHWIYKKYPNMFKKIKGIVEESVTGVHRLYQLSKAGKLCVPAMNVNDSVTKQKFDNLYCCRESILDGLKRTTDMMFGGKQVVVCGYGEVGKGCCAALKAMGSIVYVTEIDPICALQACMDGFRLVKLNEVIRQVDIVITCTGNKNVVTREHLDRMKNSCIVCNMGHSNTEIDVASLRTPELTWERVRSQVDHVIWPDGKRIVLLAEGRLLNLSCSTVPTFVLSITATTQALALIELYNAPEGRYKQDVYLLPKKMDEYVASLHLPTFDAHLTELTDEQAKYLGLNKNGPFKPNYYRY [AHCYL2]”: the “solubility in G1/S (log2)” value in the data set with HeLa Kyoto [1] was -0.105. For the same substance, the melting temperature was determined as 60.1 °C in the data set on HeLa Kyoto [2] (cell cycle stage: G1/S) and 57.5 °C in the data set on HeLa Kyoto [2] (cell cycle stage: mitosis). The thermal stability score is -1.59 in the data set on HeLa Kyoto [3] (setting [5]) and -3.95 in the data set on HeLa Kyoto [3] (cell cycle stage: mitosis). Besides, the “solubility change mitosis (log2)” value in the data set on HeLa Kyoto [4] is -0.0168.

With “MSSGAPQKSSPMASGAEETPGFLDTLLQDFPALLNPEDPLPWKAPGTVLSQEEVEGELAELAMGFLGSRKAPPPLAAALAHEAVSQLLQTDLSEFRKLPREEEEEEEDDDEEEKAPVTLLDAQSLAQSFFNRLWEVAGQWQKQVPLAARASQRQWLVSIHAIRNTRRKMEDRHVSLPSFNQLFGLSDPVNRAYFAVFDGHGGVDAARYAAVHVHTNAARQPELPTDPEGALREAFRRTDQMFLRKAKRERLQSGTTGVCALIAGATLHVAWLGDSQVILVQQGQVVKLMEPHRPERQDEKARIEALGGFVSHMDCWRVNGTLAVSRAIGDVFQKPYVSGEADAASRALTGSEDYLLLACDGFFDVVPHQEVVGLVQSHLTRQQGSGLRVAEELVAAARERGSHDNITVMVVFLRDPQELLEGGNQGEGDPQAEGRRQDLPSSLPEPETQAPPRS [PPM1F]”, the “solubility in G1/S (log2)” value in the data set on HeLa Kyoto [1] was 0.464. Further, the melting temperature in the data set on HeLa Kyoto [2] (cell cycle stage: G1/S) is 51.8 °C; with HeLa Kyoto [2] (cell cycle stage: mitosis) it was 52.7 °C. Besides, the results for the thermal stability score in the data set on HeLa Kyoto [3] (setting [5]) and in the data set with HeLa Kyoto [3] (cell cycle stage: mitosis) were -0.813 and -0.95, respectively. Further, the “solubility change mitosis (log2)” value in the data set on HeLa Kyoto [4] was -0.0364.

TMEM55B: the “solubility in G1/S (log2)” value in the data set on HeLa Kyoto [1] turned out to be 0.135. Also, the melting temperature with HeLa Kyoto [2] (cell cycle stage: G1/S) was 53.4 °C; with HeLa Kyoto [2] (cell cycle stage: mitosis), 53.5 °C. Besides, the thermal stability score in the data set on HeLa Kyoto [3] (setting [5]) was -1.51; with HeLa Kyoto [3] (cell cycle stage: mitosis), -1.58. Also, the “solubility change mitosis (log2)” value in the data set with HeLa Kyoto [4] was -0.162.

In the case of ATP1B3, the “solubility in G1/S (log2)” value in the data set with HeLa Kyoto [1] is 0.832. In addition, the melting temperature is 55.5 °C in the data set with HeLa Kyoto [2] (cell cycle stage: G1/S) and 56.1 °C with HeLa Kyoto [2] (cell cycle stage: mitosis). The results for the thermal stability score in the data set with HeLa Kyoto [3] (setting [5]) and in the data set on HeLa Kyoto [3] (cell cycle stage: mitosis) were -1.58 and -2.77, respectively. Also, the “solubility change mitosis (log2)” value with HeLa Kyoto [4] came to 0.0393.

In the case of “MAQTVQNVTLSLTLPITCHICLGKVRQPVICINNHVFCSICIDLWLKNNSQCPACRVPITPENPCKEIIGGTSESEPMLSHTVRKHLRKTRLELLHKEYEDEIDCLQKEVEELKSKNLSLESQIKTILDPLTLVQGNQNEDKHLVTDNPSKINPETVAEWKKKLRTANEIYEKVKDDVDKLKEANKKLKLENGGLVRENLRLKAEVDNRSPQKFGRFAVAALQSKVEQYERETNRLKKALERSDKYIEELESQVAQLKNSSEEKEAMNSICQTALSADGKGSKGSEEDVVSKNQGDSARKQPGSSTSSSSHLAKPSSSRLCDTSSARQESTSKADLNCSKNKDLYQEQVEVMLDVTDTSMDTYLEREWGNKPSDCVPYKDEELYDLPAPCTPLSLSCLQLSTPENRESSVVQAGGSKKHSNHLRKLVFDDFCDSSNVSNKDSSEDDISRSENEKKSECFSSPKTGFWDCCSTSYAQNLDFESSEGNTIANSVGEISSKLSEKSGLCLSKRLNSIRSFEMNRTRTSSEASMDAAYLDKISELDSMMSESDNSKSPCNNGFKSLDLDGLSKSSQGSEFLEEPDKLEEKTELNLSKGSLTNDQLENGSEWKPTSFFLLSPSDQEMNEDFSLHSSSCPVTNEIKPPSCLFQTEFSQGILLSSSHRLFEDQRFGSSLFKMSSEMHSLHNHLQSPWSTSFVPEKRNKNVNQSTKRKIQSSLSSASPSKATKS [RNF219]”, the “solubility in G1/S (log2)” value in the data set with HeLa Kyoto [1] was -0.0524. In addition, the results for the melting temperature in the data set with HeLa Kyoto [2] (cell cycle stage: G1/S) and in the data set on HeLa Kyoto [2] (cell cycle stage: mitosis) were 46.5 °C and 49.3 °C, respectively. For the same substance, the thermal stability score was 0.213 in the data set on HeLa Kyoto [3] (setting [5]) and 2.43 with HeLa Kyoto [3] (cell cycle stage: mitosis). Besides, in the data set with HeLa Kyoto [4], the “solubility change mitosis (log2)” value is -0.0524.

Consider SLC27A4, for which the “solubility in G1/S (log2)” value with HeLa Kyoto [1] is -0.211. In addition, the melting temperature is 50.3 °C with HeLa Kyoto [2] (cell cycle stage: G1/S) and 50.9 °C in the data set with HeLa Kyoto [2] (cell cycle stage: mitosis). In addition, the thermal stability score in the data set with HeLa Kyoto [3] (setting [5]) is 0.342; in the data set with HeLa Kyoto [3] (cell cycle stage: mitosis), 0.581. In addition, the “solubility change mitosis (log2)” value with HeLa Kyoto [4] is -0.138.

The values are drawn from the supplement of paper PMC5998384.
